{"source": "patent US20140154255A1", "about": "(AbbVie / Abbott, published 2014)", "binders": {"B1": {"name": "83 (antibody, human IgG1, V domains shown)", "VH": "EVQLVESGGGLVQPGGSLRLSCAASGYTFTFYGMNWVRQAPGKGLEWVGWINTYTGEPTYAADFKRRFTFSLDTSKSTAYLQMNSLRAEDTAVYYCAKYPPYDGGSHWYFDVWGQGTLVTVSS", "VL": "DIQMTQSPSSLSASVGDRVTITCSASQDISNYLNWYQQKPGKAPKVLIYFTSSLHSGVPSRFSGSGSGTDFTLTISSLQPEDFATYYCQQYSTVPWTFGQGTKVEIKR"}, "B2": {"name": "84 (antibody, human IgG1, V domains shown)", "VH": "B1 VH with D103E, G105S", "VL": "B1 VL"}, "B3": {"name": "85 (antibody, human IgG1, V domains shown)", "VH": "B1 VH with P101E, D103E, G105S", "VL": "B1 VL"}, "B4": {"name": "86 (antibody, human IgG1, V domains shown)", "VH": "B1 VH with P101D, D103E, G105S", "VL": "B1 VL"}, "B5": {"name": "87 (antibody, human IgG1, V domains shown)", "VH": "B1 VH with P101E", "VL": "B1 VL"}, "B6": {"name": "89 (antibody, human IgG1, V domains shown)", "VH": "B1 VH with G105S", "VL": "B1 VL"}, "B7": {"name": "90 (antibody, human IgG1, V domains shown)", "VH": "B1 VH with P101D, D103Y, G105S", "VL": "B1 VL"}, "B8": {"name": "91 (antibody, human IgG1, V domains shown)", "VH": "B1 VH with P101H, D103Y, G105S", "VL": "B1 VL"}, "B9": {"name": "92 (antibody, human IgG1, V domains shown)", "VH": "B1 VH with F31N, D103Y, G105S", "VL": "B1 VL"}, "B10": {"name": "93 (antibody, human IgG1, V domains shown)", "VH": "B1 VH with F31N, P101E, D103Y, G105S", "VL": "B1 VL"}, "B11": {"name": "94 (antibody, human IgG1, V domains shown)", "VH": "B1 VH with P101H, D103Y", "VL": "B1 VL"}, "B12": {"name": "96 (antibody, human IgG1, V domains shown)", "VH": "B1 VH with D103Y", "VL": "B1 VL"}, "B13": {"name": "86 (seventh row of Table 7) (antibody, human IgG1, V domains shown)", "VH": "B1 VH with P101H", "VL": "DIQMTQSPSSLSASVGDRVTITCSASQDISNYLNWYQQKPGKAPKVLIYFTSSLHSGVPSRFSGSGSGTDFTLTISSLQPEDFATYYCQQYSTVPWTFGQGTKVEIK", "notes": "defined here by its substitutions; copies: 2 + 2"}, "B14": {"name": "T30 N (anti-VEGF IgG) (antibody, V domains shown)", "VH": "B1 VH with T30N, F31N, P101H, D103Y, G105S", "VL": "B13 VL", "notes": "copies: 2 + 2"}, "B15": {"name": "T30 R (anti-VEGF IgG) (antibody, V domains shown)", "VH": "B1 VH with T30R, F31N, P101H, D103Y, G105S", "VL": "B13 VL", "notes": "copies: 2 + 2"}, "B16": {"name": "T30 W (anti-VEGF IgG) (antibody, V domains shown)", "VH": "B1 VH with T30W, F31N, P101H, D103Y, G105S", "VL": "B13 VL", "notes": "copies: 2 + 2"}}, "note": "Numbering of substitutions follows the chain as printed.", "data": [{"biological_target": "T1, VEGF (R&D systems, Minneapolis, Minn.) (UniProt P15692-4 27-191, limits assumed)", "T1 sequence (P15692 other isoform, or with tags, fused parts or gaps limits assumed)": "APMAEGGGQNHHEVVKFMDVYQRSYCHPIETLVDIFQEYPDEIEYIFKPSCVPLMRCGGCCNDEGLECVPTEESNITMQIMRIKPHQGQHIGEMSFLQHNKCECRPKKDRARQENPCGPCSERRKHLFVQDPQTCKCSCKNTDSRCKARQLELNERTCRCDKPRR", "assay": "BIAcore SPR", "description": "(§1) RL was kept low to minimize avidity due to the dimeric nature of VEGF. No capture of the antibody was made on the reference surface to serve as a negative control. Subsequently, VEGF was injected to all flow cells at a flow rate of 50 μL/min for two minutes to monitor association followed by a 25-minute flow of HBS-P running buffer (10 mM HEPES, 150 mM sodium chloride, 0.005% P-20, pH 7.4) to monitor the dissociation phase. At each cycle, VEGF, in 6 different concentrations of VEGF ranging between 0 nM and 512 nM and at four-fold increments, was injected over the surface. […] Binding data were fit to the 1:1 Langmuir model to extract binding constants from the BIAevaluate software. Double referencing was applied in each analysis to eliminate background responses from the reference surface and buffer only control. All the binding kinetics data were analyzed at least three separate determinations.", "units": {"Kd": "nM", "koff": "s⁻¹", "kon": "M⁻¹ s⁻¹"}, "values": [{"binder": "B1", "Kd": 0.106, "koff": 0.000194, "kon": "1.88e+06"}, {"binder": "B2", "Kd": 0.128, "koff": 0.000182, "kon": "1.6e+06"}, {"binder": "B3", "Kd": 0.14, "koff": 0.000175, "kon": "1.25e+06"}, {"binder": "B4", "Kd": 0.179, "koff": 0.000238, "kon": "1.33e+06"}, {"binder": "B5", "Kd": 0.204, "koff": 0.00016, "kon": 824000}, {"binder": "B6", "Kd": 0.282, "koff": 0.000249, "kon": 904000}, {"binder": "B7", "Kd": 0.311, "koff": 0.000197, "kon": 645000}, {"binder": "B8", "Kd": 0.575, "koff": 0.000121, "kon": 211000}, {"binder": "B9", "Kd": 0.708, "koff": 0.000256, "kon": 367000}, {"binder": "B10", "Kd": 0.761, "koff": 0.000225, "kon": 292000}, {"binder": "B11", "Kd": 0.857, "koff": 0.00022, "kon": 258000}, {"binder": "B12", "Kd": 1.75, "koff": 0.000379, "kon": 225000}, {"binder": "B13", "Kd": 0.282, "koff": 0.000273, "kon": 968000}]}, {"biological_target": "T2, human VEGF-A residues 27-191 of Accession #AAV38412 (human, UniProt P15692 27-191)", "T2 construct": "range 27-191", "T2 sequence (P15692 other isoform, or with tags, fused parts or gaps limits assumed)": "as above", "assay": "BIAcore SPR", "description": "(§2) The binding kinetics and affinity of the antibodies for VEGF (human VEGF-A residues 27-191 of Accession #AAV38412) was determined by using a BIAcore T200 surface plasmon resonance system (BIAcore, GE Healthcare, Piscataway, N.J.). Coupling running buffer was HBS-EP+ running buffer (10 mM HEPES, 150 mM sodium chloride, 3 mM EDTA 0.05% P-20, pH 7.4); assay running buffer was HBS-EP+ with 300 mM sodium chloride and 0.1 mg/mL BSA (Sigma A7906). Polyclonal goat anti-human Fc (Thermo Scientific prod#31125) was first immobilized to the biosensor surface in 10 mM sodium acetate, pH 4.5 using standard BIAcore amine coupling reagents (N-ethyl-N′-dimethylamino-propylcarbodiimide, EDC; N-hydroxysuccinimide, NHS; and ethanolamine HCl, pH 8.5). For binding kinetics assay a series of cycles were performed, each cycle consisted of 1) mAb capture, 2) Ag or buffer injection, 3) dissociation phase and 4) regeneration. Briefly, anti-VEGF antibodies were captured on parallel surfaces at a low flow rate of 10 μL/min. Capture levels were kept low to minimize avidity due to the dimeric nature of VEGF. No capture of the antibody was made on the reference surface to serve for primary referencing and as a negative control. Subsequently, VEGF or buffer only was injected to all flow cells at a flow rate of 80 μL/min for three minutes to monitor association followed by a 20-minute flow of assay rinning buffer at a flow rate of 80 μL/min to monitor dissociation. […] At the end of each cycle the surface was regenerated with 10 mM glycine, pH 1.5 at a flow rate of 60 μL/min in pulses of 60 and 10 sec. Binding data were fit to the 1:1 Langmuir model with mass transport term included using Biacore T200 Evaluation Software to determine the binding constants.", "units": {"Kd": "nM", "koff": "s⁻¹", "kon": "M⁻¹ s⁻¹"}, "values": [{"binder": "B8", "Kd": 0.091, "koff": "2.48e-05", "kon": 272000}, {"binder": "B9", "Kd": 0.522, "koff": 0.00021, "kon": 401000}, {"binder": "B10", "Kd": 1.59, "koff": 0.000358, "kon": 225000}, {"binder": "B14", "Kd": 0.303, "koff": "5.14e-05", "kon": 170000}, {"binder": "B15", "Kd": 0.644, "koff": "6.76e-05", "kon": 105000}, {"binder": "B16", "Kd": 0.309, "koff": "5.74e-05", "kon": 186000}]}, {"biological_target": "T1, VEGF (R&D systems, Minneapolis, Minn.)", "assay": "BIAcore SPR, WT/mutant", "description": "as §1", "units": {"Δkoff": "fold"}, "values": [{"binder": "B1", "Δkoff": 1.8}, {"binder": "B2", "Δkoff": 1.9}, {"binder": "B3", "Δkoff": 2}, {"binder": "B4", "Δkoff": 1.5}, {"binder": "B5", "Δkoff": 2.2}, {"binder": "B6", "Δkoff": 1.4}, {"binder": "B7", "Δkoff": 1.8}, {"binder": "B8", "Δkoff": 2.9}, {"binder": "B9", "Δkoff": 1.4}, {"binder": "B10", "Δkoff": 1.6}, {"binder": "B11", "Δkoff": 1.6}, {"binder": "B12", "Δkoff": 0.9}, {"binder": "B13", "Δkoff": 1.3}]}, {"biological_target": "T1, VEGF (R&D systems, Minneapolis, Minn.)", "assay": "BIAcore SPR, mutant/WT", "description": "as §1", "units": {"Δkon": "fold"}, "values": [{"binder": "B1", "Δkon": 10.4}, {"binder": "B2", "Δkon": 8.9}, {"binder": "B3", "Δkon": 6.9}, {"binder": "B4", "Δkon": 7.4}, {"binder": "B5", "Δkon": 4.6}, {"binder": "B6", "Δkon": 5}, {"binder": "B7", "Δkon": 3.6}, {"binder": "B8", "Δkon": 1.2}, {"binder": "B9", "Δkon": 2}, {"binder": "B10", "Δkon": 1.6}, {"binder": "B11", "Δkon": 1.4}, {"binder": "B12", "Δkon": 1.3}, {"binder": "B13", "Δkon": 5.4}]}, {"biological_target": "T2, human VEGF-A residues 27-191 of …", "assay": "BIAcore SPR, KD WT/KD mutant", "description": "as §2", "units": {"affinity improvement": "fold"}, "values": [{"binder": "B8", "affinity improvement": 4.7}, {"binder": "B9", "affinity improvement": 0.8}, {"binder": "B10", "affinity improvement": 0.3}, {"binder": "B14", "affinity improvement": 1.7}, {"binder": "B15", "affinity improvement": 1.3}, {"binder": "B16", "affinity improvement": 1.6}]}, {"biological_target": "T1, VEGF (R&D systems, Minneapolis, Minn.)", "assay": "BIAcore SPR, improvement over WT", "description": "as §1", "units": {"ΔKD": "fold"}, "values": [{"binder": "B1", "ΔKD": 18.6}, {"binder": "B2", "ΔKD": 15.3}, {"binder": "B3", "ΔKD": 14.1}, {"binder": "B4", "ΔKD": 11}, {"binder": "B5", "ΔKD": 9.6}, {"binder": "B6", "ΔKD": 7}, {"binder": "B7", "ΔKD": 6.3}, {"binder": "B8", "ΔKD": 3.4}, {"binder": "B9", "ΔKD": 2.8}, {"binder": "B10", "ΔKD": 2.6}, {"binder": "B11", "ΔKD": 2.3}, {"binder": "B12", "ΔKD": 1.1}, {"binder": "B13", "ΔKD": 7}]}, {"biological_target": "T3, unlabeled human VEGF (ELISA coat) (human, UniProt P15692-4 27-191, limits assumed)", "T3 sequence (P15692 other isoform, or with tags, fused parts or gaps limits assumed)": "as above", "assay": "ELISA 1 hr, EC50 WT/EC50 mutant", "description": "(§3) To detect identified variants binding to antigen, ELISA plates (Nunc-Immuno MaxiSorp plates, Nalge Nunc, Rochester, N.Y.) were coated overnight at 4° C. with unlabeled human VEGF at 1 μg/mL in 0.2 M sodium carbonate-bicarbonate buffer (pH 9.4, Pierce, Rockford, Ill.). The plates were then blocked with SuperBlock Blocking Buffer (Pierce, Rockford, Ill.) for 30 min and washed with Washing Buffer (PBS containing 0.1% Tween 20). All the washing steps were performed for three times. […] The plates were washed and 100 μL of goat anti-human kappa HRP-conjugated antibody (Southern Biotech, Birmingham, Ala.) diluted at 1:1000 in ELISA buffer was added to each well. After 30 minutes of incubation, plates were washed and bound antibodies were detected by addition of TMB 1 Component HRP Microwell substrate (BioFx #TMBW-1000-01). The reaction was terminated by addition of 100 μL/well of 650 nM Stop Reagent for TMB Microwell substrate and the absorbance was measured at 650 nm using a VERSAmax microplate reader (Molecular Devices, Sunnyvale, Calif.). Data were fitted using nonlinear regression with the software […]", "units": {"ELISA 1hr binding": "fold"}, "values": [{"binder": "B8", "ELISA 1hr binding": 0.7}, {"binder": "B9", "ELISA 1hr binding": 2.7}, {"binder": "B10", "ELISA 1hr binding": 4.3}, {"binder": "B14", "ELISA 1hr binding": 2.4}, {"binder": "B15", "ELISA 1hr binding": 2.9}, {"binder": "B16", "ELISA 1hr binding": 2.9}]}, {"biological_target": "T3, unlabeled human VEGF (ELISA coat)", "assay": "ELISA overnight, EC50 WT/EC50 mutant", "description": "as §3", "units": {"ELISA o/n binding": "fold"}, "values": [{"binder": "B8", "ELISA o/n binding": 0.3}, {"binder": "B9", "ELISA o/n binding": 1}, {"binder": "B10", "ELISA o/n binding": 3.6}, {"binder": "B14", "ELISA o/n binding": 4}, {"binder": "B15", "ELISA o/n binding": 3.2}, {"binder": "B16", "ELISA o/n binding": 4.5}]}]}
